Measured values published in the RNAGym collection of RNA variant scans (doi:10.1073/pnas.2313332121).
Fewer inactive variants are shown than the library holds.

B1: TPR 5TU (parent)
chain: GGAUCUUCUCGAUCUAACAAAAAAGACAAAUCUGCCACAAAGCUUGAGAGCAUCUUCGGAUGCAGAGGCGGCAGCCUUCGGUGGCGCGAUAGCGCCAACGUUCUCAACUAUGACACGCAAAACGCGUGCUCCGUUGAAUGGAGUUUAUCAUG

Variants of: B1
Assay: polymerase ribozyme fitness, log enrichment relative to wild type (log ratio); higher = more active; in vitro selection for triplet polymerase activity
Outline: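 To select mutant libraries of each subunit of a heterodimeric triplet polymerase ribozyme, built by PCR and transcribed, each was annealed with a biotinylated primer, partner subunit and triplets, then incubated frozen at −7 °C. Extended constructs were gel-excised, captured on streptavidin beads and amplified by RT-PCR, in one round carried out in triplicate. Illumina sequencing of input and output libraries kept genotypes with ≥10 input reads and ≥1 read per output. Fitness is the base-2 logarithm of genotype enrichment relative to wild-type enrichment, from inverse-variance-weighted replicate averages.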

| Variant | polymerase ribozyme fitness (log ratio) |
| --- | --- |
| GGAUCUUCUCGAUCUAACAAAAAAGACAAAUCUGCCACAGAGCUUGAGAGCAUCUUCGGAUGCAGAGGGUGCAGCCUUCGGUAGCGCGAUAGCGCCAACGUUCUCAACUAUGACACGCAAAACGCGUGCUCCGUUGAAUGGAGUUUAUCUUG | ≤ -4.2 |
| GGAUCUUCUCGAUCUAACAAAAAAGACAAAUCUGCCACAGAGCUUGAGUGCAUCUUCGGCUGCAGAGGCGGCAGCAUUCGGUGGCGCGAUAGCGCUAACGUUCUCAACUAUGACACGCAAAACGCGUGCUCCGGUGAAUGGAGUUUAUCAUG | ≤ -4.2 |
| GGAUCUUCUCGAUCUAACAAAAAAGACAAAUCUGCCACAGAGCUUGAGAGCAUCUUCGGAUGCAGAGGCGGCAGCCUUCGGUGGAGCGAUAGCGCCAACGUUCUCAACUAUGACACGCAAAACGCGUGCUCCCUUAAAUGGAGUUUAUCAUG | -3.86 |
| GGAUCUUCUCGAUCUAACAAAAAAGACAAAUCUGCCACAGUGCUUGAGUGCAUCUUCCGAUGCAGAGGCGGCAUCCUUCGGUGGAGCGAUAGCGCCAACGUUCUCAACUAUGACACGCAAAACGCGUGCUCCGUUGAAGGCAGUUUACCAUG | ≤ -4.2 |
| GGAUCUUCUCGAUCUAACAAAAAAGACAAAUCUGCCACACAGCUUGAGAGCAUCUUCGGAUGCAGAGGCGGCAGCCUUCGGUGGCGCGAUAGCGCCAACGUUCUCAACUAUGACACGCAAAACGCGUGCUCCGUUGAAUGGAGUUUAACAUG | -3.51 |
| GGAUCUUCUCGAUCUAACAAAAAAGACAAAUCUGCCACAGAGCUUGAGAGCAUCUUCGGAUGCGGAGGCGGCAGCCUUCGGUGGCGCGAUAGCGCCAACGUUCUCAACUAUGACACGCAAAACGCGUGCUCCGUUAAAUGGAGUUUAUCAUG | ≤ -4.2 |
| GGAUCUUCUCGAUCUAACAAAAAAGACAAAUCUGCCACAGAGCUUGGGAGCAUCUUCGGAUGCAGAGGCGGCAGCCUUCGGUGGCGCGAUAGCGCCAACGUUCUCAACUAUGACACGCAAAACGCGUGCUCCGUUGAAUGGAGGUUAUCAUG | -2.26 |
| GGAUCUUCUCGAUCUAACAAAAAAGACAAAUCUGCCACAGAGGUUGAGAGCAUCUUCGGAUGCCGAGGCGGCAGCCUUCGGUGGCGCGAUAGCGCCAACGUUCUCAACUAUGACACGCAAAACGCGUGCUCCGUUGAAUGGAGUUUAUCAUG | ≤ -4.2 |
| GGAUCUUCUCGAUCUAACAAAAAAGACAAAUCUGCCACAGAGCUUGAGAGCAUCUUCGGAUGCAGAGGCGGCAGCCUUCGGUGGUGCGAUAGCGCCAACGUUCUCAACUAUGACACGCAAAACGCGUGCUCCGUUGAAUGGAGUUUAUCAUG | -2.16 |
| GGAUCUUCUCGAUCUAACAAAAAAGACAAAUCUGCCACAGGGCUUGAGAGCAUCUUCGGAUGCAGACGCGGCAGCCUUCGGUGGCGCGAUAGCGCCAACGUUCUCAACUAUGACACGCACAACGCGUGCUCCGUUGAAUGGAGUUUAUCAUG | ≤ -4.2 |
| GGAUCUUCUCGAUCUAACAAAAAAGACAAAUCUGCCACAGAGCUUGAGAGCCUCUUCGGAUGCAGUGGCGGCAGGCUUGGGUGGCGCGAUAGCGCCAACGUUCUCAACUAUGACACGCACAACGCGUGCUCCGUUGAAUGGAGUUUAUCAUG | ≤ -4.2 |
| GGAUCUUCUCGAUCUAACAAAAAAGACAAAUCUGCCACAGAGCUUGAGAGCAUCUUCGGAUGCAGAGGCGGCAGGCUUCGGUGGCGCGAUAGCGCCAACGUUCUCAACUAUGACACGCAAAACGCGUGCUCCGUUGAAUGGAGUUUAUCAUG | -4.09 |
| GGAUCUUCUCGAUCUAACAAAAAAGACAAAUCUGCCACAGAGCUUGAGAGCAUCUUCGGCAGCAGAGGCGGCAGCCUUCGCUGGCGCGAGAGCACCAACGUUCUCAACUAUGACACGCAAAAAGCGUGCUCCGUUGAAAGGAGUUUAUCAUG | ≤ -4.2 |
| GGAUCUUCUCGAUCUAACAAAAAAGACAAAUCUGCCACAGAGCUUGAGAGCAUCUUCGGGCGCAGAGGCGGCAGCCUUCGGUGACGCGAUAGCGCCAACGUUCUCAACUAUGACACGCAAAACGCGUGCUCCGUUGAAUGGAGUUUAUCAUG | -3.52 |
| GGAUCUUCUCGAUCUAACAAAAAAGACAAAUCUGCCACAGAGCUUGAGAGCAUCUUCGGAUGCAGAGGCGGCAGCCUUCGGUGGGGCGAUAGCGCCAACGUUCUCAACUAGGACACGCAAAACGCGUGCUCCGUUGAAUGGAGUUUAUCACG | ≤ -4.2 |
| GGAUCUUCUCGAUCUAACAAAAAAGACAAAUCUGCCACACAGCUUGAGAGCAUCUUCGGAUGCAGAGGCGGCAGCCUUCGGUGGCGCGAUAGCGCCAACGUUCUCAACUAUGACACGCAAAACGCGUGCUCCGUUGAAUGGAGUUGAUCAUG | -0.247 |
| GGAUCUUCUCGAUCUAACAAAAAAGACAAAUCUGCCACAGAGCUUGAGAGCAUCUUCGGAUGCAGAGGCGGCAGCUUUCGGUGGCGCGAUAGCGUCAACGUUCUCAACUAUGACAGGCAAAACGCGUGCUCCGUUGAAUGGAGUUUAUCAUG | -3.42 |
| GGAUCUUCUCGAUCUAACAAAAAAGACAAAUCUGCCACAGAGCUUGAGAGCGUCUUCGGAUGCAGAGGCGGCAGCCUUCGGUGGCGCGAUUGCGCCAACGUCCUCAACUAUGACACGCAAAACGCGUGCUCCGUUGAUUGGAUUUUAUCAUG | ≤ -4.2 |
| GGAUCUUCUCGAUCUAACAAAAAAGACAAAUCUGCCACAGAGCUUGAGAGCAUCUUCGGAUGCAGAGGCGGCAGCCUUCGGUGGCGCGAUAGCGCCAACGUUCUCAACUAUGACGCGCAAAACGCGUGCUCCGUUGGAUGGAGUUUAUUAUG | -4.02 |

| Variant | polymerase ribozyme fitness (log ratio) |
| --- | --- |
| GGAUCUUCUCGAUCUAACAAAAAAGACAAAUCUGCCACAGAGCUUGAGAGCAUCUUCGGAUGCCGAGGCAGCAGCCUUCGGUGGCGCGAUAGCGCCAACGUUCUCAACUAUGAUACGCAAAACGCGUGCUCCGUUGAAUGGAGUUUAUCAUG | ≤ -4.2 |
| GGAUCUUCUCGAUCUAACAAAAAAGACAAAUCUGCCACAGAGCUUGAGAGCAUCUUCGGAUGCAGAGGCGGCUGCCUUCGGUGGCGCGGUAGGGCCAACGUUCGCGACUAUGACACGCAAAACGCGUGCUCCGAUGAAUGGAGUUUAUCAUG | ≤ -4.2 |
| GGAUCUUCUCGAUCUAACAAAAAAGACAAAUCUGCCACAGAGCUUGAGAGCAUCUUCGGAUGCAGAGGCGGCGGCCUUCGGUGGCACGAUAGCGCCAACGUUCUCAACUAUGACACGCAAAACGCGUGCUCCGUUGAAUGGAGUUUAUCAUG | -4.16 |
| GGAUCUUCUCGAUCUAACAAAAAAGACAAAUCUGCCACAGAGCUUGAGAGCAUCUUCGGAUGCAGAGGCGGCAGCCUUCGGUGGCGUGAUAGCGCCAACGUUCUCAACUAUGACACGCAAAACGCGUGCUCCGUUGAAUGGAGUUUAUCAUG | -1.53 |
| GGAUCUUCUCGAUCUAACAAAAAAGACAAAUCUGCCACAGAGCUUGAGAGCAUCUUCGGAUGCAGAGGCGGCAGCCUUCGGUGGCGGGAUAGCGCCAACGUUAUCAACUAUGACACUCAAAACGCGUGCUCCGUUGAAUGGAGUUUAUCAUG | ≤ -4.2 |
| GGAUCUUCUCGAUCUAACAAAAAAGACAAAUCUGCCACAGAGCUUGAGAGCUUCUUCGGAUGCAGAGGCGGCAGCCUUCGGUGGCGCGAUCGCGCCAACGUUCUCAAUUAUGACACGCAAAACGCGUGCUCCGUUGAAUGGACUUUAACAUG | ≤ -4.2 |
| GGAUCUUCUCGAUCUAACAAAAAAGACAAAUCUGCCACAGAGCUUGAGAGCAUCUUCGGAUGCAGAGGCGGCAGCCUUCGGUGGUGCGAUAGCGCCAACGUUCUCAACUAUGACACGAAAAACGCGUGCUCCGUUGAAUGGAGUUUAUCAUG | -2.77 |
| GGAUCUUCUCGAUCUAACAAAAAAGACAAAUCUGCCACACAGCUUGAGAGCAUCUUCGGAUGCAGAGGCGGCAGCCUUCGGUGGCGCGAUAGCGCCAACGUUCUCAACUAUGACACGCAAAACGCGUGCUCCGUUGAAUGGAGAUUAUCAUG | -0.312 |
| GGAUCUUCUCGAUCUAACAAAAAAGACAAAUCUGCCACAGAGCUUGAGAGCAUUUUCGGAUGCAGAGGCGGCAGCUUUCGGUGGCGCGAUCGCGGCAACGUUCUCAACUAUGACACGCAAAACGCGUGCUCCGUUGAAUGGAUUUUAUCAUG | ≤ -4.2 |
| GGAUCUUCUCGAUCUAACAAAAAAGACAAAUCUGCCACAGAGCUUGAGAGCAUCUUCGGAUGCAGAGGCGGCAGCCUUCGGUGGCGUGAUAGCGCCAACGUUGUCAACUAUGACACGCAAAACGCGUGCUCCGUUGAAUGGAGUUUAUCAUG | ≤ -4.2 |
| GGAUCUUCUCGAUCUAACAAAAAAGACAAAUCUGCCACAGCGAUUGAGAGCAUCUUCGGAUGCAGAGGCGGCAGCCUUCGGUCGCGGGAUAGCGCAAACGUUCUCAACUAUGACACGCAAAACGCGUGCUCCGUUGAAUGGAGUUUAUCAUG | ≤ -4.2 |
| GGAUCUUCUCGAUCUAACAAAAAAGACAAAUCUGCCACAGAGCUUGAGAGCGUCUUCGGAUGCAGAGGCGGCAGCCUUCGGUGGCGCGAUCGCGCCAACGUUCUCAACUAUGACACGCUAAACGCGUACUCCGUUGAAUGGAGUUUAUCAUG | ≤ -4.2 |
| GGAUCUUCUCGAUCUAACAAAAAAGACAAAUCUGCCACAGGGCUUGAGAGCAGCUUCGGAUGCAGAGGCGGCAGCCUUCGGUGGAGCGAUAGCGCCAACGUUCUCAACUAUGACACGCAAAACGCGGGCUUCGUUGAAUGGAAUUUAUCAUG | ≤ -4.2 |
| GGAUCUUCUCGAUCUAACAAAAAAGACAAAUCUGCCACAGAGCUUGAGAGCAUCUUCGGAUGGAGAGGCGGCAGCCUUCGGUGGUGCGAUAGCGCCAACGUUCUCAACUAUGACACGCAAAACGCGUGCUCCGUUGAAUGGAGUAUAUCAUG | -2.16 |
| GGAUCUUCUCGAUCUAACAAAAAAGACAAAUCUGCCACAGAGCUUGCGAGCAUCUUUGGAUGCAGAGGCGGCAGCCUUCGGUGGAGCGAUAGCGCCAACGUUCUCAACUAUGACUCGCCAAGCGCGUGCUCCGUUGAAUGGAGAUUAUCAUG | ≤ -4.2 |
| GGAUCUUCUCGAUCUAACAAAAAAGACAAAUCUGCCACAGCGCUUGAGAGCGUCUUCGGAUGCAGAGGCGUCAGCCUUCGGUGGCGCGAUAGCGCCAACGUUCUCAGCUAGGACACGCAAAACGCGUGCUCCGUUGAACGGAGUUGAUAAGG | ≤ -4.2 |
| GGAUCUUCUCGAUCUAACAAAAAAGACAAAUCUGCCACAGAGCUUGAGAGCAUCUUAGGAUGCAGAGGCGGUAGCCUUCGGUGGCGAGAUAGCGCCAACGUUCUCAACUAUGACACGCAAAACGCGUGCUCCGUUGAAUGGAGUUUAUCAUG | ≤ -4.2 |
| GGAUCUUCUCGAUCUAACAAAAAAGACAAAUCUGCCACAGAGCUUGAGAGCAUCUUCGGAUGCAGAGGCGGCAGCCUUCGGUGGCGCGAUGGCGCCAACGUUCUCAACUAUGACGGGCAAAACGCGUGCUCCGUUGAAUGGCGUUUAUCAUG | ≤ -4.2 |
| GGAUCUUCUCGAUCUAACAAAAAAGACAAAUCUGCCACAGAGCUUGAGAGCCUCUUCGGAUGCAGAGGCGGCAGCCUUCGGUUGCGCGAUAGCGCCACCGUUCUCAACUAUGACACGCAAAACGCGUGCUCCGUUGAAUGGAGUUUAUCAUG | -3.64 |
